The source of these data is patent US20250154237A1 (A AND G PHARMACEUTICAL, published 2025).

The chains are these.
T1: human recombinant his-tagged full-length progranulin (human, UniProt P28799 18-593)
T1 construct: mature; also called huPGRN; hu PGRN; not shown: his tag
T1 sequence (looked up): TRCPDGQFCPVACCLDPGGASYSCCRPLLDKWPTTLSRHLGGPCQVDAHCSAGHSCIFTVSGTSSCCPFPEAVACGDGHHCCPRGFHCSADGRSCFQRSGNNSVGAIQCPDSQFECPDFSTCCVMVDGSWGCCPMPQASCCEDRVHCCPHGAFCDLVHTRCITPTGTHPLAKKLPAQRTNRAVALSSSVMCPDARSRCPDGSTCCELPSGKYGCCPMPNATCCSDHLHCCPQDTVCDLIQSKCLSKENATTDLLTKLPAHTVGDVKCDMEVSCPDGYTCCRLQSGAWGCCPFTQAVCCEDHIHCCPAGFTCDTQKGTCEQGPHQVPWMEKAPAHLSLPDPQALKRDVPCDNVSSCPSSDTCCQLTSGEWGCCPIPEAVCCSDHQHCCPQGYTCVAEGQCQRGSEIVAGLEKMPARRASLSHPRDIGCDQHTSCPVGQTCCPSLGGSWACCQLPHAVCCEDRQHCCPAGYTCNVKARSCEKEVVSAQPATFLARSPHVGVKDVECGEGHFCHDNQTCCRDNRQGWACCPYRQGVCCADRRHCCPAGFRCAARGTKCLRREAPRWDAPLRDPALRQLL

B1: 10C8 (antibody, V domains shown)
VH: QVQLVQSGAEVKKPGASVKVSCKASGYTLTSYGISWVRQAPGQGLEWMGWISAYNGNTNYAQKLQGRVTMTTDTSTSTAYMELRSLRSDDTAVYYCARELLWFGELLSQYYYYGMDVWGQGTTVTVSS
VL: DIQMTQSPSTLSASVGDRVTITCRASQNISRWLAWYQQKPGKAPKLLIFRASSLETGVPSRFGGSGSGTEFTLTISSLQPDDFATYYCQQYNSYYTFGQGTRLEIK
notes: Fully human mAb from TC-mAb mouse hybridoma; also called mAb 10C8
B2: 16C11 (antibody, V domains shown)
VH: QVQLVESGGGVVQPGRSLRLSCAASGFTFSSYAMHWVRQAPGKGLEWVAVIWYDGSKKYNADSVKGRFTISRDNSKNTLYLQMNSLRAEDTAVYYCARDRGIGGDYWGQGTLVTVSS
VL: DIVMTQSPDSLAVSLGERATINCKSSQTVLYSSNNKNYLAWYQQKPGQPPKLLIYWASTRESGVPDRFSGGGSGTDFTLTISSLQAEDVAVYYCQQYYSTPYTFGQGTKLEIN
notes: Fully human mAb from TC-mAb mouse hybridoma; also called mAb 16C11
B3: 10B3 (antibody, V domains shown)
VH: QVQLVESGGGVVQPGRSLRLSCAASGFTLSGYGMHWVRQAPDKGLEWVAVIWYDGSDKNYADSVKGRFTISRDNSKNTLYLQMNSLRAEDTAVYYCARDRGAVAGDYWGQGTLVTVSS
VL: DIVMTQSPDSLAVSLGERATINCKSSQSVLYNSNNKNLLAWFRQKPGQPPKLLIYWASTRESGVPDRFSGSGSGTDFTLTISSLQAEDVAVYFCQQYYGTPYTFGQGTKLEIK
notes: Fully human mAb from TC-mAb mouse hybridoma; also called mAb 10B3
B4: 14A6 (antibody, V domains shown)
VH: QVQLVESGGGVVQPGRSLRLSCAASGFTFSNYGMHWVRQAPGKGLEWVAVIWYDGSNKYYADSVKGRFTISRDNSKNTLYLQMNSLRAEDTAVYYCARGHSVSGGDYWGQGTLVTVSS
VL: DIQMTQSPSSLSASVGDRVTITCRASQSVNSFLNWYQQTPGKAPKLLIYAASSLQSGVPPRFSGSGSGTDFTLTISSLQPEDFATYYCQQSYSTPYTFGQGTKLEIN
notes: Fully human mAb from TC-mAb mouse hybridoma; also called mAb 14A6

One assay addresses T1, human recombinant his-tagged …. Nature of the assay: flow cytometry: progranulin binding to MDA-MB-231 cells with the antibody, % of hIgG control. Here is the method:
Progranulin Binding by Flow Cytometry. Binding assays were carried out on an […] Flow Cytometer using the instructions included therein. […] Out of the 45 mAbs assayed, 11 clones (shown in bold in Table 5) produced antibodies that were able to inhibit progranulin binding in a dose dependent fashion.
Regarding B1, the “% Control” value amounted to 55%.

Regarding B2, the “% Control” value was 60%.

For the molecule B3, the “% Control” value came out at 62%.

As to B4, the “% Control” value came out at 116%.

The next assay has the same target. The assay is described as follows: BLI OctetRed96, mAb captured on AHC sensors, huPGRN as analyte, 25 C. Set-up: Response: unit not given here. Here is the method: Determination of Binding Affinity by Octet. OctetRed96 BLI technology was used to examine the binding characteristics of selected fully human antibodies to progranulin. The method is briefly described herein. Assays were performed at 25° C. Pre-conditioning of the pre hydrated (1 hr) anti-human Fc capture (AHC) sensors was performed by repeating 3 cycles of dipping sensors in regeneration buffer followed by neutralizing buffer (PBS). Anti-progranulin mAbs were captured at 20 μg/ml for 360 seconds on pre-conditioned biosensors. Sensors were then dipped in baseline buffer similar to the progranulin diluent (PBS). Sensors were then dipped into progranulin-containing wells as indicated for 420 seconds. The dissociation step was carried out in assay buffer (PBS) for 600 seconds. The KD was determined based on Kₒₙ and Koff using the experimental conditions described above.
The Kd is the equilibrium constant for the complex coming apart. What is called koff is the rate constant with which the complex falls apart. Broadly, the kon is the rate constant with which the complex forms. Turning to B1, the Kd was 0.00413 nM, the Response was determined as 0.89, the off-rate constant (koff) was found to be 5.38e-07 s⁻¹ and the kon stood at 130000 M⁻¹ s⁻¹.

As for B2, the Kd stood at 0.476 nM, the Response amounted to 0.932, the off-rate (koff) was determined as 7.21e-05 s⁻¹ and the kon is 152000 M⁻¹ s⁻¹.

In the case of B3, the Kd amounted to 0.136 nM, the Response was 0.797, the koff is 1.19e-05 s⁻¹ and the kon was 86800 M⁻¹ s⁻¹.

As to B4, the Kd is 0.587 nM, the Response is 0.64, the koff was 2.95e-05 s⁻¹ and the kon worked out at 50300 M⁻¹ s⁻¹.
